Laboratory results reported in US20230357405A1 (published 2023).
Positions count from the first letter of the chain named. Each block holds one binder with its values, some of them ahead of it.

How the values were obtained:
[1] = molecular target: T1, Strep tagged recombinant human PD-1 (human, UniProt Q15116 25-167, limits assumed); test: SPR Biacore T200, single cycle kinetics; Strep tagged PD-1 amine coupled to CM-5 (14 RU)
T1 construct: also called Strep tagged human PD-1; not shown: Strep tag
Protocol: Single cycle kinetics assays were used to study the interaction between human PD-1 with Humabody® on a Biacore T200 instrument (GE Healthcare). Strep tagged recombinant human PD-1 was amine coupled to one flow cell of a CM-5 chip to create a low density surface (14 RU) using standard Biacore reagents. For the reference flow cell, a blank immobilisation was carried out. A five-point, three-fold dilution series of each Humabody® was made with a top concentration of 25 nM. The binding kinetics were followed by flowing the Humabody® over the chip surface in HBS EP+ buffer at a flow rate of 30 μl/min. The contact time for each of the association steps was 180 seconds and the dissociation step was 3300 seconds. The data was fitted to a 1:1 binding model after double reference subtraction using the Biacore T200 Evaluation software.

[2] = molecular target: T2, cynomolgus PD-1 recombinant protein (cynomolgus); test: HTRF binding assay; 2 nM PD-1, anti human-Fc cryptate and anti His-D2
T2 construct: also called cyno PD-1; cynomolgus PD-1 (Acro Biosystems cat no. PD-1-05254)
Protocol: Purified VH were tested for their ability to bind to human PD-1 (R&D Systems cat no. 1086-PD), cynomolgus PD-1 (Acro Biosystems cat no. PD-1-05254) and mouse PD-1 (R&D Systems cat no. 1021-PD) in an HTRF Binding assay format. All reagents and serially diluted VH were prepared in assay buffer containing PBS, 0.1% BSA and 0.4M Potassium Fluoride. Samples or assay buffer (non-specific binding) were incubated with 2 nM human/cynomolgus or mouse PD-1, 1 nM Anti human-Fc Cryptate PAb (Cisbio cat. no. 61HFCKLB) and 30 nM anti His-D2 (CisBio cat no 61HISDLA) in black 384-shallow well assay plates for a minimum of 3 hours at room temperature. Time-resolved fluorescent emission at 620 nm and 665 nm was measured following excitation at 337 nm on the BMG PHERAstar plate reader. The HTRF ratio were calculated ((665 nm emission/620 nm emission)*10000) and the data corrected for (non-specific binding) to give the specific binding signal.

T1 sequence (Q15116 25-167 limits assumed): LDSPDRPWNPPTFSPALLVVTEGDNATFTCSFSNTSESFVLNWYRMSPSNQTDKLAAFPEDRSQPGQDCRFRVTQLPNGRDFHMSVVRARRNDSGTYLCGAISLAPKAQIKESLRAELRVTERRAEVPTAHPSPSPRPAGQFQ

B1: Humabody® 1.80 (VHH)
VHH: EVQLVESGGGLVKPGGSLRLSCAASGFTFSDSSMTWMRQAPGKGLEWVSYISSGGGVKFYADSVKGRFTISRDNAKNSLYLQMNSLRAEDTAVYYCAREAPLRLGESPHDAFDISGQGTMVTVSS
notes: human VH single domain antibody
kon [1]: 176000 M⁻¹ s⁻¹

B2: Humabody® 1.1 (VHH)
VHH: B1 VHH with E1Q, S32Y, S33T, S53T, G56T, V57I, F59Y, A61T, E89D, S115W
notes: human VH single domain antibody; also called clone 1.1
EC50 [2]: 6.3 nM

Other lines, results leading:

EC50 [2]: 0.75 nM
B3: Humabody® 1.57 (VHH)
VHH: B1 VHH with E1Q, S32N, K58I, E89D
notes: as for B1

EC50 [2]: 4.1 nM
B4: Humabody® 1.92 (VHH)
VHH: B1 VHH with S32E
notes: as for B1
